Consider 2 molecules from patent publication US20230181729A1 (IMMATICS BIOTECHNOLOGIES, published 2023).

The test has as its target HLA-A*02/PRAME-004 presented on cells (PRAME-004-loaded T2 cells or PRAME-004-positive tumor cell lines) (human). Put plainly: cell-based or functional assay.

B1: TCR R17P1D7 (TCR, V domains shown)
V domain 1: QTVTQSQPEMSVQEAETVTLSCTYDTSESDYYLFWYKQPPSRQMILVIRQEAYKQQNATENRFSVNFQKAAKSFSLKISDSQLGDAAMYFCAYRWAQGGSEKLVFGKGTKLTVNP
V domain 2: DIYQTPRYLVIGTGKKITLECSQTMGHDKMYWYQQDPGMELHLIHYSYGVNSTEKGDLSSESTVSRIRTEHFPLTLESARPSHTSQYLCATELWSSGGTGELFFGEGSRLTVLE
Consider B1, for which the “EC50 of IFNγ release by CD8+ T cells re-expressing the TCR; T2 cells loaded with PRAME-004 (10 µM to 10 pM)” value stood at 1.83 nM.

B2: TCR R16P1E8 (TCR, V domains shown)
V domain 1: QKEVEQDPGPLSVPEGAIVSLNCTYSNSAFQYFMWYRQYSRKGPELLMYTYSSGNKEDGRFTAQVDKSSKYISLFIRDSQPSDSATYLCAMSEAAGNKLTFGGGTRVLVKP
V domain 2: EAGVAQSPRYKIIEKRQSVAFWCNPISGHATLYWYQQILGQGPKLLIQFQNNGVVDDSQLPKDRFSAERLKGVDSTLKIQPAKLEDSAVYLCASSYTNQGEAFFGQGTRLTVVE
As to B2, the “EC50 of IFNγ release by CD8+ T cells re-expressing the TCR; T2 cells loaded with PRAME-004 (10 µM to 10 pM)” value was roughly 1 µM.
